Measured values taken from PMC12098869, “An mRNA-display derived cyclic peptide scaffold reveals the substrate binding interactions of an N-terminal cysteine oxidase” (Nature Communications, 2025).
“And” between values parts separate entries of the source, which are not always exact repeats. Identical values can stand only once.

Columns and labels:
Assay in all cases: SPR; biotinylated ADO or ADO mutant immobilised on a Biotin CAP chip (~2500-3000 RU), substrate peptide injected; Biacore T200, 4 °C; 20 mM HEPES pH 7.5, 500 mM NaCl, 10 mM DTT, 0.1% tween-20; 50 µL/minute; multi-cycle or single-cycle mode not given; each cell is one of three independent measurements
Conditions in all cases: both partners purified
[1] = biological target: T1, ADO-Y87F, N-terminally His-tagged and biotinylated (human, UniProt Q96SZ5 1-270, Y87F, biotin (biotinylated during expression))
T1 construct: 2-aminoethanethiol dioxygenase (ADO), human, UniProt Q96SZ5, full length, site-directed mutant; source: E. coli Rosetta2(DE3), purified (Ni-NTA, SEC); not shown: biotinylation tag (from the vector pQE80L-Navi), N-terminal, kept
T1 sequence (looked up): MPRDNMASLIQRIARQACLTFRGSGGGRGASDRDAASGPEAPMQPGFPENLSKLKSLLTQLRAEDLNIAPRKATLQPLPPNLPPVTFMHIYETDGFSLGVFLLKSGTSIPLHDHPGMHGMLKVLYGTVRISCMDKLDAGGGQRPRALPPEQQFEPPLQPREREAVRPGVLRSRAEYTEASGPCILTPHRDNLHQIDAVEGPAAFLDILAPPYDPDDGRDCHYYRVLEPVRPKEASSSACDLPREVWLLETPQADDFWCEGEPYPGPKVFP

[2] = biological target: T2, ADO-Y87A, N-terminally His-tagged and biotinylated (human, UniProt Q96SZ5 1-270, Y87A, biotin (biotinylated during expression))
T2 construct: 2-aminoethanethiol dioxygenase (ADO), human, UniProt Q96SZ5, full length, site-directed mutant; source: E. coli Rosetta2(DE3), purified (Ni-NTA, SEC); not shown: biotinylation tag (from the vector pQE80L-Navi), N-terminal, kept
T2 sequence (looked up): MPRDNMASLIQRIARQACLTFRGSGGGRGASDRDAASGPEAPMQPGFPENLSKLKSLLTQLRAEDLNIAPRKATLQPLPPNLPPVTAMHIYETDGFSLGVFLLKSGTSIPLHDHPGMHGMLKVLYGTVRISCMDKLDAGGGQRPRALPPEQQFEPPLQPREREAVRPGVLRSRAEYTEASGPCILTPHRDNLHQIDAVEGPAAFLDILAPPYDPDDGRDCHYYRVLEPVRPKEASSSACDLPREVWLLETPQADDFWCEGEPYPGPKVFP

[3] = biological target: T3, ADO-Y212F, N-terminally His-tagged and biotinylated (human, UniProt Q96SZ5 1-270, Y212F, biotin (biotinylated during expression))
T3 construct: 2-aminoethanethiol dioxygenase (ADO), human, UniProt Q96SZ5, full length, site-directed mutant; source: E. coli Rosetta2(DE3), purified (Ni-NTA, SEC); not shown: biotinylation tag (from the vector pQE80L-Navi), N-terminal, kept
T3 sequence (looked up): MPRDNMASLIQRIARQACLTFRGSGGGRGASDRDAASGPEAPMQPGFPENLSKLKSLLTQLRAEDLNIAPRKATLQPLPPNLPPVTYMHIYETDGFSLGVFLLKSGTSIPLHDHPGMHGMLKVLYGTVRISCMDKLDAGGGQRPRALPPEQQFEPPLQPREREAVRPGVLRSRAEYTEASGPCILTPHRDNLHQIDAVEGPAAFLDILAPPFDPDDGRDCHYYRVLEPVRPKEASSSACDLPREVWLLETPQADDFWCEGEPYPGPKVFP

[4] = biological target: T4, ADO-Y222A, N-terminally His-tagged and biotinylated (human, UniProt Q96SZ5 1-270, Y222A, biotin (biotinylated during expression))
T4 construct: 2-aminoethanethiol dioxygenase (ADO), human, UniProt Q96SZ5, full length, site-directed mutant; source: E. coli Rosetta2(DE3), purified (Ni-NTA, SEC); not shown: biotinylation tag (from the vector pQE80L-Navi), N-terminal, kept
T4 sequence (looked up): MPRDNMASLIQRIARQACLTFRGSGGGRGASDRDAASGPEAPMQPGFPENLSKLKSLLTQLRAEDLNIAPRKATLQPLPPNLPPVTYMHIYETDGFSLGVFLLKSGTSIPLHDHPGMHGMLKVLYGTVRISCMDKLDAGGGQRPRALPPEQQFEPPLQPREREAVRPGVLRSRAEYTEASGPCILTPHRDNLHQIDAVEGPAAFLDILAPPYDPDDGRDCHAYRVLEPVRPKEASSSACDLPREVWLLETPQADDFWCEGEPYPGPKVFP

[5] = biological target: T5, ADO-Y212A, N-terminally His-tagged and biotinylated (human, UniProt Q96SZ5 1-270, Y212A, biotin (biotinylated during expression))
T5 construct: 2-aminoethanethiol dioxygenase (ADO), human, UniProt Q96SZ5, full length, site-directed mutant; source: E. coli Rosetta2(DE3), purified (Ni-NTA, SEC); not shown: biotinylation tag (from the vector pQE80L-Navi), N-terminal, kept
T5 sequence (looked up): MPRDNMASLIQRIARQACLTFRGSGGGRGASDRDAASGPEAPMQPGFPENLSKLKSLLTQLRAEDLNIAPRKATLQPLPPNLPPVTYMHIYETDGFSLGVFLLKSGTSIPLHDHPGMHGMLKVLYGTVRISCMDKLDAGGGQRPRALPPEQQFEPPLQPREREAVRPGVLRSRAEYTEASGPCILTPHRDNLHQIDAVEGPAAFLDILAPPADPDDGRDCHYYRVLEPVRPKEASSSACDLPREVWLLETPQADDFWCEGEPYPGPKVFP

Kd [1]: 303 nM and 327 nM and 329 nM | Kd [2]: 4.57 µM and 3.79 µM and 4.17 µM | Kd [3]: 8.76 µM and 9.12 µM and 9.82 µM | Kd [4]: 921 nM and 1040 nM and 1100 nM | Kd [5]: 34 µM and 24.7 µM
B1: IL32(2-15), synthetic peptide corresponding to the methionine excised N-terminus of IL32, residues 2-15 (peptide, UniProt P24001 2-15, looked up)
peptide: CFPKVLSDDMKKLK
notes: interleukin 32 (IL32), residues 2-15 (N-terminal Cys exposed); also called 14-mer IL32; source: synthetic peptide
